In PMC12797002, “Hydrophobic residues in the α‐synuclein NAC domain drive seed‐competent fibril formation and are targeted by peptide inhibitors” (The Febs Journal, 2025):
Entries after “also recorded” stand apart in the source; their conditions may differ.

Columns and labels:
[1] = ANS assay of NAC peptide aggregation at different pH; type: physicochemical; settings: ANS fluorescence, 100 μM peptide; for lag time at acidic pH compared with neutral pH / lag time at basic pH compared with neutral pH: 40 μM ANS, 1× PBS, 1000 rpm, n = 3; for lag time at acidic pH compared with neutral pH: acidic (pH 4.5 in legend, pH 4.2 in method) vs pH 7.2, 37 °C; for lag time at basic pH compared with neutral pH: pH 8.0 vs pH 7.2, 37 °C; for aggregation on altering pH: acidic, neutral (pH 7.2) and basic (pH 8.0) PBS, 37 °C
Procedure: A 40‐μL reaction mixture was prepared on ice containing 100 μM NAC peptides and 40 μM 8‐anilino‐1‐naphthalenesulfonic acid (ANS; Sigma‐Aldrich, Cat. # A1028‐5G) in 1× PBS at pH 4.2, 7.2, or 8.0. The aggregation kinetics were monitored on an EnSpire Multimode Plate Reader (Revvity) at 37 °C with a constant agitation of 1000 rpm. ANS fluorescence readings (Ex: 390 nm, Em: 475 nm) were recorded every 5–10 min for 48–72 h. The lag time of aggregation was determined by fitting a Boltzmann sigmoidal equation, as described in the previous section.

[2] = ThT aggregation kinetics and AFM/TEM imaging of NAC peptides; type: physicochemical; settings: for aggregation (ThT kinetics) / lag time of aggregation compared with NAC35: 100 μM peptide, n = 3; for aggregation (ThT kinetics): 15 μM ThT, 1× PBS pH 7.2, 37 °C, 1000 rpm, 48–72 h, ThT fluorescence; for lag time of aggregation compared with NAC35: ThT readings 0–10 h, Boltzmann sigmoidal fit, PBS pH 7.2, 37 °C; for aggregate morphology (AFM and TEM): after 48 h of aggregation; for Key observations: fibril formation and stability / Key observations: nucleation: summary table
Procedure: NAC peptides stored at −80 °C were thawed on ice and centrifuged at 12 100 g for 45 s. A reaction mixture (40 μL) was prepared on ice containing 100 μM NAC peptide, either alone or in combination with inhibitor peptides at a 1 : 2 molar ratio, along with 15 μM ThT (Sigma‐Aldrich, Burlington, MA, USA; Cat. # T3516‐5G) in 1× PBS (pH 7.2). This mixture was then dispensed into a clear‐bottom, black 384‐well plate (Revvity, Waltham, MA, USA), and the plate was sealed with a TopSealA‐PLUS (Revvity) to prevent evaporation.
The aggregation kinetics was monitored on an EnSpire Multimode Plate Reader (Revvity) at 37 °C with a constant agitation of 1000 rpm. To prevent condensation in the assay plate, the upper heater temperature in the plate reader was set to 2 °C higher than the lower heater temperature. ThT (Ex: 460–490 nm, Em: 500–550 nm) fluorescence readings were recorded every 5–10 min for 48–72 h. The aggregation lag time was determined by fitting a Boltzmann sigmoidal equation to the fluorescence data in OriginPro 2024 (OriginLab Corporation, Northampton, MA, USA).
NAC peptide aggregates, collected after 48 h of the aggregation assay, were dropped onto a freshly cleaved 10 mm AFM mica disc (Ted Pella, Inc., Redding, CA, USA) and air‐dried for 10 min at room temperature. The mica discs were washed five times with deionized water and then dried for 10–15 min at room temperature. AFM imaging was performed as described, using the […] AIR probe (tip radius: 2 nm, spring constant: 0.4 N/m).
Samples were dropped on glow‐discharged carbon‐coated copper grids and negatively stained with 2% uranyl acetate. Electron microscopy was performed on a Tecnai G2 F20 microscope (FEI Technologies, Hillsboro, OR, USA) with an Eagle 4K CCD camera (FEI Technologies) or a CM100 TWIN Transmission Electron Microscope (Philips, Amsterdam, Netherlands) equipped with a side‐mounted Veleta Camera (Olympus, Tokyo, Japan) and processed in the iTEM software suite (Olympus). After bringing the images to 2048 × 2048 pixels, the pixel size at the specimen level was 1.14 nm. Approximately 20 micrographs of each specimen were recorded and evaluated.

[3] = UV-Vis spectrophotometric analysis of soluble and insoluble fractions; type: physicochemical; settings: 100 μM peptide, 48 h incubation without ThT, 65 000 g 1 h, 1× PBS pH 7.2, spectra 400–600 nm; means of 3 replicates
Procedure: To fractionate aggregated samples (recombinant αSyn or NAC peptides), 20% of the aggregation mixture was set aside as the ‘total fraction’. The remaining sample was centrifuged at room temperature at 65 000 g for 1 h. The supernatant was collected as the ‘soluble fraction’ and transferred to a fresh tube. The pellet was resuspended in 80 μL of 1× PBS (pH 7.2) and centrifuged at 65 000 g for 1 h. After removing the supernatant, the pellet was resuspended in 8 μL of 1× PBS (pH 7.2), yielding a 10× concentrated ‘insoluble fraction’.
NAC peptides (100 μM) were incubated without ThT for 48 h to allow aggregation. The resulting mixtures were centrifuged at 65 000 g for 1 h to separate the soluble and insoluble fractions, as outlined above. Insoluble fractions were resuspended in an equal volume of 1× PBS (pH 7.2) as the soluble fractions. UV–Vis absorption spectra were recorded from 400 to 600 nm using an EnSpire Multimode Plate Reader (Revvity) with a resolution of 10 nm.

monomeric αSyn = target: T1, monomeric αSyn (Homo sapiens, UniProt P37840, A53T); assay: In vitro seeding assay with preformed fibrils (ThT, dot blot, Coomassie gel); type: biochemical; settings: for seeding of αSyn aggregation (effect on lag time) in words: 100 μM αSyn + 25 μM preformed fibrils, ThT; for αSyn dimerization (dimer-to-monomer band ratio, Coomassie gel): insoluble fractions of seeded αSyn, n = 2; for Key observations: seeding of αSyn aggregation: summary table
T1 construct: made in house
Procedure: For the in vitro seeding assay, αSyn (100 μM), NAC35 (100 μM), NAC16 (200 μM), and NAC11 (200 μM) peptides were aggregated without ThT for 72–96 h. Fibril formation was confirmed by mixing 10 μL of the aggregated sample with 15 μM ThT and measuring fluorescence using an EnSpire Multimode Plate Reader (Revvity). Aggregates were then centrifuged to separate insoluble fractions as described above.
αSyn (100 μM) was incubated with 25 μM insoluble fractions (preformed fibrils) of αSyn, NAC35, NAC16, and NAC11 in a 100–150 μL volume per well of a 96‐well ViewPlate in the presence of 50 μM ThT. The aggregation kinetics were monitored on an EnSpire Multimode Plate Reader (Revvity) at 37 °C with a constant agitation of 1000 rpm. ThT fluorescence was recorded every 5–10 min for over 60–65 h. After aggregation, the contents of each well were collected, and insoluble fractions were isolated by centrifugation. These fractions were subsequently analyzed using dot blot analysis and Coomassie gel staining.
The samples were mixed with 2× Laemmli buffer [62.5 mM Tris/HCl (pH 6.8), 25% (w/v) glycerol, 2% SDS, and 0.01% Bromophenol Blue, supplemented with 5% (v/v) 2‐mercaptoethanol] and boiled at 95 °C for 5 min. The samples were then subjected to electrophoresis using Mini‐PROTEAN TGX 4–20% Precast gels (Bio‐Rad, Hercules, CA, USA, Cat. # 4561095) in Tris/glycine/SDS running buffer (Bio‐Rad). Gels were fixed in 50% methanol (v/v) and 10% acetic acid (v/v) for 1 h, stained with Coomassie Brilliant Blue R‐250 Staining Solution (Bio‐Rad, Cat. # 1610436EDU) for 12 h at 4 °C with gentle agitation, and destained in deionized water. Gel images were acquired using a ChemiDoc MP imaging system (Bio‐Rad), and densitometry was performed using the IMAGEJ software (RRID: SCR_003070; Bethesda, MD, USA).
Five μL of the sample (2.5 μL first, allowed to dry completely, then another 2.5 μL) was spotted onto a nitrocellulose membrane (Bio‐Rad, Cat. # 1620147), pre‐divided into uniform circular grids, and allowed to dry for 10 min at room temperature. The membrane was blocked for 1 h with 5% bovine serum albumin (BSA) in 1× Tris‐buffered saline with 0.05% Tween® 20 (TBST), followed by 3× washes with TBST. The membrane was then incubated for 1 h with anti‐α‐Synuclein (D37A6) rabbit monoclonal antibody (Cell Signaling Technology, Inc., Danvers, MA, USA, Cat. # 4179, RRID: AB_1904156), which recognizes an epitope surrounding Glu105 in the C‐terminal region of αSyn, and was used at a 1 : 2000 dilution in 5% BSA/TBST. After 3× washes with TBST, the blot was incubated with Alexa Fluor™ 647 Goat anti‐Rabbit IgG (Thermo Fisher Scientific; Cat. # A‐21245) at a 1 : 5000 dilution for 1 h. The blot was imaged using the ChemiDoc MP imaging system (Bio‐Rad), and densitometry was performed using IMAGEJ.

| seeding of αSyn aggregation (effect on lag time) in words (monomeric αSyn) | Key observations: seeding of αSyn aggregation (monomeric αSyn) | insoluble fraction of seeded αSyn (dot blot) (monomeric αSyn; αSyn aggregated for 72 h with preformed fibrils, n = 3) | Substance | lag time at acidic pH compared with neutral pH [1] | lag time at basic pH compared with neutral pH [1] | aggregation (ThT kinetics) [2] | lag time of aggregation compared with NAC35 [2] | aggregate morphology (AFM and TEM) [2] | Key observations: fibril formation and stability [2] | Key observations: nucleation [2] | solubility: UV–Vis absorption of soluble and insoluble fractions [3] | αSyn dimerization (dimer-to-monomer band ratio, Coomassie gel) (monomeric αSyn) | aggregation on altering pH [1] |
| --- | --- | --- | --- | --- | --- | --- | --- | --- | --- | --- | --- | --- | --- |
| fail to seed αSyn aggregation | lacks seeding ability |  | NAC16: truncated NAC peptide corresponding to αSyn 63–78 (VTNVGGAVVTGVTAVA) | longer lag times | longer lag times | readily underwent aggregation | shorter lag time of aggregation than NAC35 | elongated fibrils with clumped tangles | moderately stable fibrils | Rapid nucleation | clear increase in absorbance in the insoluble fraction | did not promote dimerization or aggregation |  |
|  |  |  | NAC12: truncated NAC peptide corresponding to αSyn 71–82 (VTGVTAVAQKTV) |  |  | did not aggregate |  | no fibrillar or aggregated structures were formed | No nucleation or fibril formation observed | No nucleation or fibril formation observed | indistinguishable spectra for soluble and insoluble fractions; also recorded: remained fully soluble |  | did not induce |
|  |  |  | NAC17: truncated NAC peptide corresponding to αSyn 79–95 (QKTVEGAGSIAAATGFV) |  |  | did not aggregate |  | no fibrillar or aggregated structures were formed | No nucleation or fibril formation observed. | No nucleation or fibril formation observed. | indistinguishable spectra for soluble and insoluble fractions; also recorded: remained fully soluble |  | did not induce |
| significantly shortened the lag time | effective seeding of αSyn aggregation | increased insoluble fractions | NAC35: peptide of the entire NAC domain, corresponding to αSyn 61–95 | shortened the lag time | increased it | readily underwent aggregation |  | elongated fibrils with clumped tangles | forms robust fibrils with enhanced stability | Slow nucleation | clear increase in absorbance in the insoluble fraction | significantly increased αSyn dimerization |  |
|  |  |  | NAC8: shortest NAC peptide, eight residues, corresponding to αSyn 72–79 (TGVTAVAQ) |  |  | did not aggregate |  | no fibrillar or aggregated structures were formed | No nucleation or fibril formation observed | No nucleation or fibril formation observed | indistinguishable spectra for soluble and insoluble fractions; also recorded: remained fully soluble |  | did not induce |

| Substance | seeding of αSyn aggregation (effect on lag time) in words (monomeric αSyn) | Key observations: seeding of αSyn aggregation (monomeric αSyn) | insoluble fraction of seeded αSyn (dot blot) (monomeric αSyn; αSyn aggregated for 72 h with preformed fibrils, n = 3) | lag time at acidic pH compared with neutral pH [1] | lag time at basic pH compared with neutral pH [1] | aggregation (ThT kinetics) [2] | lag time of aggregation compared with NAC35 [2] | aggregate morphology (AFM and TEM) [2] | Key observations: fibril formation and stability [2] | Key observations: nucleation [2] | solubility: UV–Vis absorption of soluble and insoluble fractions [3] | αSyn dimerization (dimer-to-monomer band ratio, Coomassie gel) (monomeric αSyn) | aggregation on altering pH [1] |
| --- | --- | --- | --- | --- | --- | --- | --- | --- | --- | --- | --- | --- | --- |
| NAC11: truncated NAC peptide corresponding to αSyn 68–78, the minimal toxic core (GAVVTGVTAVA) | fail to seed αSyn aggregation | lacks seeding ability |  | longer lag times | longer lag times | readily underwent aggregation | shorter lag time of aggregation than NAC35 | dense, sticky bundles lacking elongated tangles | forms unstable fibrils prone to precipitation | Rapid nucleation | clear increase in absorbance in the insoluble fraction | did not promote dimerization or aggregation |  |
